The values below come from US20240309389A1, “Chimeric FCeRI a-Chain Gene, Chimeric FCeRI a-Chain Protein, Cells, Analysis Kit and Analysis Method” (TEIKYO HEISEI UNIVERSITY, priority 2021, published 2024).

The test has as its target Human-Rat chimeric FcεRI α-chain protein (chimeric FcεRI on the cell membrane of HuRa clones) (human (extracellular domain) and rat (transmembrane and intracellular domains); rat) (UniProt P13386). As to the kind of experiment: cell-based or functional assay.

Chain of Human-Rat chimeric FcεRI α-chain protein (chimeric FcεRI on the cell membrane of HuRa clones) (human (extracellular domain) and rat (transmembrane and intracellular domains); rat) (chain, as listed by the source mutant, form in doubt, chain 1 of 3): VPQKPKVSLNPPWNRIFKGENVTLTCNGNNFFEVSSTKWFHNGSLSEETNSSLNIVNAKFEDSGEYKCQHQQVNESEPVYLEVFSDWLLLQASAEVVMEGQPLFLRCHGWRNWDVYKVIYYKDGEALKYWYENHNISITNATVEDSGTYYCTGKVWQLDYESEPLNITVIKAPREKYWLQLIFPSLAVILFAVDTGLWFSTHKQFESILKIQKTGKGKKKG
Chain of Human-Rat chimeric FcεRI α-chain protein (chimeric FcεRI on the cell membrane of HuRa clones) (human (extracellular domain) and rat (transmembrane and intracellular domains); rat) (P13386 whole entry, stated change not applied, form in doubt, chain 2 of 3, the tested form may be a part): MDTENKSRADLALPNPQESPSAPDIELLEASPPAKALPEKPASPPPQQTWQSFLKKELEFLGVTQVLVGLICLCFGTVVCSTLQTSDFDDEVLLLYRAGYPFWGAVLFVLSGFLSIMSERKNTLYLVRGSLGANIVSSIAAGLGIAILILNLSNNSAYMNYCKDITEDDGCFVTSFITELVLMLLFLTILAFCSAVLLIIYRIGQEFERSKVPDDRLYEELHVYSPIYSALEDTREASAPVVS
Chain of Human-Rat chimeric FcεRI α-chain protein (chimeric FcεRI on the cell membrane of HuRa clones) (human (extracellular domain) and rat (transmembrane and intracellular domains); rat) (P20411 19-86, stated change not applied, form in doubt, chain 3 of 3): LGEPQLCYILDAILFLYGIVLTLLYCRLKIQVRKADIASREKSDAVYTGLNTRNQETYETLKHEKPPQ

For the substance “purified human IgE (ab65866, Abcam) (from UniProt P01854 1-428) (antibody)”, the luciferase expression level (NF-AT reporter), IgE-sensitized (aIgE) against not sensitized (no IgE) cells, stimulated with anti-human IgE antibody; seven HuRa clones turned out to be 100 times.
